This data set can be described thus: yeast display, Sf9 membrane polyspecificity reagent, FACS + sequencing; frameworks hold sequencing errors. Summed up:
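Galactose-induced (36–48 hours) yeast carrying a synthetic nanobody display library were exposed to 10% biotinylated, detergent-solubilized Sf9 membrane reagent at 4 °C for 1 hour. FACS followed streptavidin microbead enrichment, using low and high (top ~1%) gates for expression (anti-HA) and reagent binding (streptavidin). Colony PCR, MiSeq 2 × 250 sequencing and CDR-length filtering followed. Labels for polyreactivity reflect the gate of origin.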
Regarding “QVQLVESGGGLVQAGGSLRLSCAASGSIFGTNVMGWYRQAPGKERELVAAITASGSRTYYADSVKGRFTISRDNAKNTVYLQMNSLKPEDTAVYYCATVSRFGFKDFDYWGQGTQVTVSS”, the “polyreactivity (PSR sort gate)” value is listed as “high polyreactivity”.
Consider “QVQLVESGGGLVHAGGSLRLSCSASGSILKSYAMGWYRQAPGKERDLVAAITYRDGSTYYADSVKGRFTISRDTAKNTVYLQMISLKPEDTAVYYCASEPYWWNVFYPGYNYWGQGNQVTVSS”, for which the “polyreactivity (PSR sort gate)” value is given as “high polyreactivity”.
As to “QVQLVESGGGLVQAGGSLRLSCAASGITFYPYAMGWYRQAPGTERELVAAITGSGGRTYYADSVKGRFTISRDNAKNTVYLQMNSLKPEDTAVYYCAKVARYPDMGYWGQGTQVTVSS”, the “polyreactivity (PSR sort gate)” value was “high polyreactivity”.
The same measure for “QVQLVESGGGLVQAGGSLRLSCAASGSIFYSNAMGWSRQAPGKEREFVAAISAGGGSTYYADSVKGRFTISRDNATNTVYLQMISLKPEDTAVYYCAADYFYPYYGAMDYWGQGTQVTVSS”: “low polyreactivity”.
Then “QVQLVESGGGLVKAGGSLRLSCAASGRTFGNYAMGWYRQAPGKERELVASMNTGGSTSYADSVKGRFTISRDNAKNTVYLQMNSLKPEDTAVYYCARSFFWYRLHDYWGQGTQVTVSS”, with “low polyreactivity”.
Then “QVQLVESGGGLVQAGGSLRLSCAASGNTFNYNAMGWYRQAPGKERELVAAITSSGGSTYYADSVKGRFTISRDYAKNTVYLQMNSLKPDDTAVYYCAADLWQDSYSYWFDYWGQGTQVTVSS”, with “high polyreactivity”; and “QVQLVESGGGLVQAGGSLRLSCAASGNILFYNSMGWYRQAPGKERELVAAISRSAGSTYYADSVKGRFTISRDNAKNTVYLQMNRLKAEDTAVYYCAAQYFRRSGYWGQGTQVTVSS”, with “high polyreactivity”; and “QVQLVESGGGLVQAGGSLRLSCAASGSTYYYNAMGWYRQAPGKERELVAAIRTSGGRTYYADSVKGRFTISRDNAKNTVFLQMMSLKPEDTAVYFCADDGTDVHYTYDYWGQGTLVTVSS”, with “low polyreactivity”.
Consider “QVQLVESGGGLVQAGGSLRLSCAASGRTFYPYVMGWYRQAPGKEREMVAAISYTGGSTYYADSVKGRFTISRDNAKNTVYLQMNSLKPEDTAVYYCNRAKYYSGGYRYHVDYWGQGTQVTVSS”, for which the “polyreactivity (PSR sort gate)” value is “high polyreactivity”.
Then “QVQLVESGGGLVQAGGSLRLSCSASGRTFSVYAMGSYRQAPGKERELVAGITSGGSTNYADSVKGRFTISRDNAKNTVYLQMNSLKPEDTAVYYCDAENVYAGFGFVSIVDYWVQGTQVTVSS”, with “low polyreactivity”.
The same measure for “QVQLVESGGGLVQAGGSLRISCAASGRSFGVNAMGWYRQAPGKERELVAVISSGGSTYYADSVKVRFTISRDNAKNTVYLQMNSLKPEDTAVYYCNAVFGRWFPYNLSDYWGQGTQVTVSS”: “low polyreactivity”; for “QDQLVESGGGLVQAGGSLRLSCAASGSIFAGYVMGWYRQAPGKERELVASISSGTGTFYADSVKGRFTISRDNAKNTVYLQMNSLKPEDTAVYYCAAESYRTVQFIRSRWRYTYDYWGQGTQVTVSS”: “low polyreactivity”.
The same measure for “QDQLVESGGGLVQAGGSLRLSCAASGRIFYPNAMGWYRQAPGKERELVASISRGGPTSYADSVKGRFTISRDNAKNTVYLQMNSLKPEDTAVYYCAADVAWYRYRSYYWGQGTQVTVSS”: “high polyreactivity”; for “QVQLVESGGGLVQAGGSLRLSCAASGFIFSRYAMGWYRQAPGKERELVAYITRRGGRTFYADSVKGRFTISRDNAKNTVYLQMNSLKPEDTAVYYCGADAYGLTLFYVFSYDYWGQGTQVTVSS”: “high polyreactivity”; for “QVQLVESGGGLVQAGGSLRLSCAASGFIFSSYAMGWYRQAPGKERELVAAITSRGGSTYYADSVKGRFTISRDNAKNTVYLQMNSLKPEDTAVYYCNAVVTKYAKSRFLYYYWGQGTQVTVSS”: “high polyreactivity”.
With “QVQLVESGGGLVQAGGSLRLSCAASGRTFYYNAMGWYRQAPGKERELVAAITSRGTTYYADSVKGRFTISRDNAKNTVYLQMNSLKPEDTAVYYCAALALYRAQGNLDYWGQGTQVTVSS”, the “polyreactivity (PSR sort gate)” value is recorded as “high polyreactivity”.
Then “QVQLVESVGGIVQAGGSLRLSCAASGSIINWYAMGWYRQAPGKERELVAAISSSGSTNYADSVKGRFTISRDNAKNTVYLQMNSLKPEDTAVYYCNADEYYLNNYNYGYWGQGTQVTVSS”, with “low polyreactivity”; and “QVQLVESGGGLVQAGGSLRLSCAASGFTIRSYVMGWYRQAPGKERELVAAIRRSGGSTYYADSVKGRFTISRDNAKNTVYLQMNSLKPEDTAVYYCAVGARWYWSYYWGQGTQVTVSS”, with “high polyreactivity”; and “QVQLGESGGGLVQAGGSLRLSCAASGSIFSRYTMGWYREAPGKERELVAAITSSGGRTYYADSVKGRFTISRDNAKNTVYLQMNRLKAEDTAVYYCAARYFSSFPLYYYWGQGTQVTVSS”, with “high polyreactivity”.
The same measure for “QVQLVESGGGLVQAGGSLRLSCAASGSILRFNSMGWYRQAPGKERELVATITKGGGRTNYADSVKGRFTISRDNAKKTVYLQMNSLKPQDTSVYYCAEKFIYARYGTFQTDYKIYDYWGQGTQVTVSA”: “high polyreactivity”.
Regarding “QVQLVESGGGLVQAGGSLRLSCAASGSIFSSYAMGWYRQAPGKERELVAAITSGGSTYYADSVKGRFTISRDNAKNTVYLQLFSLKPEDTAVYYCAARQVRTSKLHMGYWGQGTQVTVSS”, the “polyreactivity (PSR sort gate)” value is “low polyreactivity”.
For the sequence “QVQLVESGGGLVQAGGSLRLSCAASGLTFRYYAMGWYRQAPGKERELVAAISRSGGSTYYADSVKGRFTISRDNAKNTVYLQMNSLKPEDTAVYYCAAGRRGGKQGGTRGGDYWGQGTQVTVSS”, the “polyreactivity (PSR sort gate)” value is “high polyreactivity”.
The same measure for “QVQLVESGGGLVQAGGSLRLSCAASGSIFGYNTMGWYRKAPGKERELVAAISYRGGSTSADSVKGRFSISRDNAKNTVYLQMNSRKPEDTAVYSCATRSIVGYRYSGYDYWGQATQVTVSS”: “high polyreactivity”; for “QVQLVESGGGLVQAGGSLRLSCAASGSTFYTNAMGWSRQAPGTERELVAAISGSGGSTYYADSVKGRFTISRDNAKNTVYVQMNSLKPEDTAVYYCAARSRYYYTRFDYWGQGTQVTVSS”: “low polyreactivity”.
Then “QVQLVESGGGLVQAGGSLRLSCAASGFTFQYSAMGWSRQAPGKERDVVAAIRSNGGSTYYADSVKGRFTISRDNAKNTVYLQMNSLKPEDTAVYYSAARAYKTYDWGQGTQVTVSS”, with “high polyreactivity”; and “QVQLVESGGGLVQAGGSLRLSCAASGSIWYYAMGWYRQAPWTERELVAAIRRGGSTYYADYVKGRFTISRDNAKNTVYVQMNSMKPEDTAVYYCAASWNYYKLDYWGQGTQVTVSS”, with “high polyreactivity”.
Then “QVQLVESGGGLVQAGGSLRLSCAASGNIFRYYAMGWYRPAPGKERELVAAISSRGGSTYYADSVKGRFTISRDNAKNTVYLQMTSLKPADTAVYYCAAGGYDVYHDPYYYWGQGTQVTVSS”, with “low polyreactivity”; and “QVQLVESGGGLVQAGGSLRLSCAASGSTFQGYTMGWYRQAPGKERELVAAISVRRGITYYADSVKGRFTISRDNAKNTVYLQMNSLKPEDTAVYYCNAYYYRPYGNKYGYWGQGTQVTVSS”, with “high polyreactivity”.
For the sequence “QVQLVESGGGLVQAGGSLRLSCAASGFTFTWNTMGWYRQAPGKERELVAAITTGGRTYYADSVKGRFTISRDNAKNTVYLQMNSLKPEDTAVYYCNKLFIAKYDSWGQGTQVTVSS”, the “polyreactivity (PSR sort gate)” value is on record as “high polyreactivity”.
Then “QVQLVESGGGLVQAGGSLRLSCAASGSIFGYNDMGWYRQAPGKERELVATITWGGGRTRYADSVKGRFTISRDNAKNTVYFQMNSLKPEDTAVYYCAAGYYRLWVRYDYWGQGTQVTVSS”, with “low polyreactivity”.
Then “QVQLVESGGGLVQAGGSLRLSCAASGRTFSGNTMGWYRQAPGKERELVAAITGRGGSTYYADSVKGRFTISRDNAKNTVYLQMNSLKPEDTAVYYCAALRYTFAGRFDYWGQGTQVTVSS”, with “high polyreactivity”.
The same measure for “QVQLVESGGGLVQAGGSLRLSCAASGSTFVKYAMGWYRQAPGKERELVARISSSGGSTYYADSVKGRFTISRDNAKNTVYLQMNSLKPEDTAVYYCAAPSLIAKYDYWGQGTQVTVSS”: “high polyreactivity”; for “QVQLVESGGGLVQAGGSLRLSCAASGIIFHGNAMGWYRQAPGKERELVAAIRWSGGSTYYADSVKGRFTISRDNAKNSVYLPMNSLKPEDTAVYYCNAGRSWRRTHYDYWGQGTQVTVSS”: “high polyreactivity”; for “QVQLVESGGGLVQAGGSLRLSCAASGSTFGFYAMGWYRQAPGKERELVAAISVSGGSTYYADSVKGRFTISRDNAKNTVYLQMNSLNPEDTGVYYCNKVWRPRYYWGLGTQVTVSS”: “high polyreactivity”.
On to “QVQLVESGGGLVQAGGSLRLSCAASGITFYYYAMGWYRQAPGKERELVASISSVGSTYYADSVKGRFTISRDNAKNTVYLQMNSLKPEDTAVYYCAAVDYVRYYPDEFDYWGQGTQVTVSS”, for which the “polyreactivity (PSR sort gate)” value was “low polyreactivity”.
The same measure for “QVQLVESGGGLVQAGGSLRLSCAASGRIFPYYTRGWYRQAPGKERELVATITTGGSTNYADSVKGRFTISRDNAENTVYLQMNSLKPEDTAVYYCAKREASSRWPYDYWGQGTQVTVSS”: “low polyreactivity”; for “QVQLVESGGRLVQAGGSLLLSCDASGSIFRHYAMGWYRQAPWQERELVAAISAIGGSTYADSVKGRFTISRDNAKNTVYLQMNSLIPEDTGVYYCNARSYTSYVYHEAGEFDYWGQGTQVTVSS”: “low polyreactivity”.
The same measure for “QVQLVESGGGLGQAGGSLRLSCAASGFTFSSNAMGWYRQAPGNERALVAAISGNGGITYYADSVKGRFTISRDNAKNTVYLQMNCLKPEDTAVDYCAAEAYRYAWYDYWGQGTQVTVSS”: “high polyreactivity”.
“QVQLVESGGGLVQAGGSLRLSCAASGRTFSGNAMGWYRQAPGKEREFVAVISSNGGSTYYADSVKGRFTISRDNAKNTVYLQMNSLKPEDTAVYYCNARYWRGWGGRVSKYGYWGQGTQVTVSS”: the “polyreactivity (PSR sort gate)” value is listed as “high polyreactivity”.
The same measure for “QVQLVESGGGLVQAGGSLRLSCAASGRIFRYNAMGWYRQAPGKERELVAAITWRGGSTYYADSVKGRFTISRDNAKNTVYLQMNSLKPEDTAVYYCNKVYSLTFEYDYWGQGTQVTVSS”: “high polyreactivity”.
For “QVQLVESGGGLVQAGGSLSLSCAASGRTFKPYAMGWYRQAPGKERELVAVITSNGSSTYYADSVKGRFTISRDNAKNTVYLQMNSLKPEDTAVYYCATKLTYTLTSGAYAYDYWGQGTQVTVSS”, the “polyreactivity (PSR sort gate)” value is listed as “low polyreactivity”.

The values are drawn from the nanobody polyreactivity screen of Harvey et al. (2022).
